Test results as given in the RNAGym collection of RNA variant scans (doi:10.1093/molbev/msab373).

B1: Azoarcus group I ribozyme (parent)
chain: GUGCCUUGCGCCGGGAAACCACGCAAGGGAUGGUGUCAAAUUCGGCGAAACCUAAGCGCCCGCCCGGGCGUAUGGCAACGCCGAGCCAAGCUUCGGCGCCUGCGCCGAUGAAGGUGUAGAGACUAGACGGCACCCACCUAAGGCAAACGCUAUGGUGAAGGCAUAGUCCAGGGAGUGGCGAAAGUCACACAAACCGG

Variants of: B1
Test: reverse-splicing fitness (ratio to wild type); higher = more active; in vitro selection; Mg2+ level not given
Method in brief: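 An in vitro group I ribozyme library with randomized positions was T7-transcribed and gel-purified. In triplicate, 10 pmol RNA in EPPS pH 7.5 was reacted with 50 pmoles of a 30-nt RNA substrate for 1 h at 37 °C across several added MgCl2 levels (1–48 mM), then stopped with EDTA. Products were reverse transcribed from a substrate-complementary primer, PCR-amplified and sequenced (HiSeq 4000). Fitness is a variant's read proportion after selection over that before, normalised to wild type.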

Point of comparison: A111G A145U C169A U176G, reverse-splicing fitness 0.00483. Against it:
- A111G A145G C150G C169A U176A — higher, 0.0122
- A111G A145G C150G C169A U176C — higher, 0.0135
- A111G A145G C150G C169A U176G — higher, 0.00761
- A111G A145G C150G C169G — higher, 0.0171
- A111G A145G C150G C169G U176A — higher, 0.00939
- A111G A145G C150G C169G U176C — higher, 0.00813
- A111G A145G C150G C169G U176G — higher, 0.00506
- A111G A145G C150G C169U — higher, 0.0298
- A111G A145G C150G C169U U176A — higher, 0.011
- A111G A145G C150G C169U U176C — higher, 0.0172
- A111G A145G C150G C169U U176G — higher, 0.00609
- A111G A145G C150G U176A — higher, 0.111
- A111G A145G C150G U176C — higher, 0.184
- A111G A145G C150G U176G — higher, 0.0237
- A111G A145G C150U — higher, 0.941
- A111G A145G C150U C169A — higher, 0.0452
- A111G A145G C150U C169A U176A — higher, 0.0193
- A111G A145G C150U C169A U176C — higher, 0.0252
- A111G A145G C150U C169A U176G — higher, 0.00505
- A111G A145G C150U C169G — higher, 0.101
- A111G A145G C150U C169G U176A — higher, 0.0289
- A111G A145G C150U C169G U176C — higher, 0.0431
- A111G A145G C150U C169G U176G — higher, 0.00595
- A111G A145G C150U C169U — higher, 0.168
- A111G A145G C150U C169U U176A — higher, 0.0415
- A111G A145G C150U C169U U176C — higher, 0.0611
- A111G A145G C150U C169U U176G — higher, 0.00616
- A111G A145G C150U U176A — higher, 0.72
- A111G A145G C150U U176C — higher, 0.713
- A111G A145G C150U U176G — higher, 0.25
- A111G A145G C169A — higher, 0.053
- A111G A145G C169A U176A — higher, 0.0226
- A111G A145G C169A U176C — higher, 0.036
- A111G A145G C169A U176G — higher, 0.00526
- A111G A145G C169G — higher, 0.118
- A111G A145G C169G U176A — higher, 0.0326
- A111G A145G C169G U176C — higher, 0.0596
- A111G A145G C169G U176G — higher, 0.00638
- A111G A145G C169U — higher, 0.19
- A111G A145G C169U U176A — higher, 0.0478
- A111G A145G C169U U176C — higher, 0.0655
- A111G A145G C169U U176G — higher, 0.00661
- A111G A145G U176A — higher, 0.751
- A111G A145G U176C — higher, 0.779
- A111G A145G U176G — higher, 0.333
- A111G A145U — higher, 0.957
- A111G A145U C150A — higher, 0.365
- A111G A145U C150A C169A — higher, 0.0105
- A111G A145U C150A C169A U176A — higher, 0.0121
- A111G A145U C150A C169A U176C — higher, 0.00843
- A111G A145U C150A C169A U176G — higher, 0.00565
- A111G A145U C150A C169G — higher, 0.016
- A111G A145U C150A C169G U176A — higher, 0.014
- A111G A145U C150A C169G U176C — higher, 0.0131
- A111G A145U C150A C169G U176G — higher, 0.00512
- A111G A145U C150A C169U — higher, 0.0232
- A111G A145U C150A C169U U176A — higher, 0.0162
- A111G A145U C150A C169U U176C — higher, 0.0165
- A111G A145U C150A C169U U176G — higher, 0.00519
- A111G A145U C150A U176A — higher, 0.224
- A111G A145U C150A U176C — higher, 0.237
- A111G A145U C150A U176G — higher, 0.121
- A111G A145U C150G — higher, 0.449
- A111G A145U C150G C169A — higher, 0.0108
- A111G A145U C150G C169A U176A — higher, 0.00932
- A111G A145U C150G C169A U176C — higher, 0.00907
- A111G A145U C150G C169A U176G — lower, 0.00461
- A111G A145U C150G C169G — higher, 0.0152
- A111G A145U C150G C169G U176A — higher, 0.00712
- A111G A145U C150G C169G U176C — higher, 0.00501
- A111G A145U C150G C169G U176G — lower, 0.00482
- A111G A145U C150G C169U — higher, 0.0229
- A111G A145U C150G C169U U176A — higher, 0.00751
- A111G A145U C150G C169U U176C — higher, 0.0148
- A111G A145U C150G C169U U176G — higher, 0.00488
- A111G A145U C150G U176A — higher, 0.17
- A111G A145U C150G U176C — higher, 0.226
- A111G A145U C150G U176G — higher, 0.0305
- A111G A145U C150U — higher, 0.952
- A111G A145U C150U C169A — higher, 0.0341
- A111G A145U C150U C169A U176A — higher, 0.0142
- A111G A145U C150U C169A U176C — higher, 0.0144
- A111G A145U C150U C169A U176G — higher, 0.00557
- A111G A145U C150U C169G — higher, 0.0749
- A111G A145U C150U C169G U176A — higher, 0.0215
- A111G A145U C150U C169G U176C — higher, 0.0325
- A111G A145U C150U C169G U176G — higher, 0.0059
- A111G A145U C150U C169U — higher, 0.132
- A111G A145U C150U C169U U176A — higher, 0.0375
- A111G A145U C150U C169U U176C — higher, 0.056
- A111G A145U C150U C169U U176G — higher, 0.00691
- A111G A145U C150U U176A — higher, 0.677
- A111G A145U C150U U176C — higher, 0.697
- A111G A145U C150U U176G — higher, 0.317
- A111G A145U C169A — higher, 0.0537
- A111G A145U C169A U176A — higher, 0.0114
- A111G A145U C169A U176C — higher, 0.0203
- A111G A145U C169G — higher, 0.13
- A111G A145U C169G U176A — higher, 0.0268
- A111G A145U C169G U176C — higher, 0.0429
- A111G A145U C169G U176G — higher, 0.00522
- A111G A145U C169U — higher, 0.194
- A111G A145U C169U U176A — higher, 0.0488
- A111G A145U C169U U176C — higher, 0.0656
- A111G A145U C169U U176G — higher, 0.00767
- A111G A145U U176A — higher, 0.755
- A111G A145U U176C — higher, 0.809
- A111G A145U U176G — higher, 0.524
- A111G C150A — higher, 0.462
- A111G C150A C169A — higher, 0.0135
- A111G C150A C169A U176A — higher, 0.0171
- A111G C150A C169A U176C — higher, 0.0177
- A111G C150A C169A U176G — higher, 0.00678
- A111G C150A C169G — higher, 0.0174
- A111G C150A C169G U176A — higher, 0.0252
- A111G C150A C169G U176C — higher, 0.0218
- A111G C150A C169G U176G — higher, 0.00767
- A111G C150A C169U — higher, 0.0262
- A111G C150A C169U U176A — higher, 0.0199
- A111G C150A C169U U176C — higher, 0.0264
- A111G C150A C169U U176G — higher, 0.00628
- A111G C150A U176A — higher, 0.275
- A111G C150A U176C — higher, 0.264
- A111G C150A U176G — higher, 0.103
- A111G C150G — higher, 0.363
- A111G C150G C169A — higher, 0.0114
- A111G C150G C169A U176A — higher, 0.0101
- A111G C150G C169A U176C — higher, 0.0111
- A111G C150G C169A U176G — higher, 0.00557
- A111G C150G C169G — higher, 0.0138
- A111G C150G C169G U176A — higher, 0.00723
- A111G C150G C169G U176C — lower, 0.00463
- A111G C150G C169G U176G — higher, 0.00539
- A111G C150G C169U — higher, 0.0227
- A111G C150G C169U U176A — higher, 0.00683
- A111G C150G C169U U176C — higher, 0.0163
- A111G C150G C169U U176G — higher, 0.00532
- A111G C150G U176A — higher, 0.0982
- A111G C150G U176C — higher, 0.166
- A111G C150G U176G — higher, 0.0168
- A111G C150U — higher, 0.905
- A111G C150U C169A — higher, 0.0299
- A111G C150U C169A U176A — higher, 0.0169
- A111G C150U C169A U176C — higher, 0.0193
- A111G C150U C169A U176G — higher, 0.00554
- A111G C150U C169G — higher, 0.0695
- A111G C150U C169G U176A — higher, 0.0243
- A111G C150U C169G U176C — higher, 0.0386
- A111G C150U C169G U176G — higher, 0.00579
- A111G C150U C169U — higher, 0.112
- A111G C150U C169U U176A — higher, 0.0336
- A111G C150U C169U U176C — higher, 0.0507
- A111G C150U C169U U176G — higher, 0.00703
- A111G C150U U176A — higher, 0.686
- A111G C150U U176C — higher, 0.646
- A111G C150U U176G — higher, 0.271
- A111G C169A — higher, 0.0602
- A111G C169A U176A — higher, 0.0183
- A111G C169A U176C — higher, 0.0226
- A111G C169A U176G — higher, 0.00542
- A111G C169G — higher, 0.117
- A111G C169G U176A — higher, 0.0309
- A111G C169G U176C — higher, 0.0577
- A111G C169G U176G — higher, 0.00607
- A111G C169U — higher, 0.196
- A111G C169U U176A — higher, 0.0489
